The target in assay [1] is T1, recombinant tag-free Staphylococcus aureus serine protease-like protein B (SplB) (Staphylococcus aureus (strain NCTC 8325 …, UniProt Q2FXC3)). As to the kind of experiment: cell-based or functional assay.
Assay [2] addresses T2, recombinant tag-free Staphylococcus aureus serine protease-like protein F (SplF) (Staphylococcus aureus (strain NCTC 8325 …, UniProt Q2FXC8)).
T2 construct: serine protease-like protein F (SplF) of Staphylococcus aureus, tag-free
The experiment in a line: ELISA; indirect ELISA for cross-reactivity with recombinant tag-free SplA, SplD, SplE and SplF. The note with it: both partners purified. In general terms: An ELISA detects its analyte on a solid surface through an enzyme-linked reagent.

For assay [3], the target named is T3, recombinant tag-free Staphylococcus aureus serine protease-like protein E (SplE) (Staphylococcus aureus (strain NCTC 8325 …, UniProt Q2FXC7)).
T3 construct: serine protease-like protein E (SplE) of Staphylococcus aureus, tag-free
The description is as above. The note with it: both partners purified.

Assay [4] deals with T4, recombinant tag-free Staphylococcus aureus serine protease-like protein A (SplA) (Staphylococcus aureus NCTC 8325 (strain …, UniProt Q2FXC2)).
T4 construct: serine protease-like protein A (SplA) of Staphylococcus aureus, tag-free
The description is as above. The note with it: both partners purified.

Assay [5] concerns the target T5, recombinant tag-free Staphylococcus aureus serine protease-like protein D (SplD) (Staphylococcus aureus (strain NCTC 8325 …, UniProt Q2FXC5)).
T5 construct: serine protease-like protein D (SplD) of Staphylococcus aureus, tag-free
The description is as above. The note with it: both partners purified.

Assay [6] concerns the target T1, recombinant tag-free Staphylococcus …. As to the kind of experiment: MST; RED-NHS-labelled tag-free SplB (40 nM) constant, α-SplB1 serially diluted from 3.42 µM to 0.209 nM; MST buffer with 0.05% Tween-20; RT; Monolith NT.115, 100% excitation power, 40% MST power. To be noted: both partners purified.
Assay [7] addresses T6, native SplB in the extracellular proteins of S. aureus D29 (Staphylococcus aureus D29 (USA300 …, UniProt Q2FFT0, strain)).
T6 construct: serine protease-like protein B (SplB), secreted by S. aureus D29, a community-acquired USA300 derivative (CC8); no identifier printed for this strain's SplB; Denatured, separated by SDS-PAGE and blotted; also called SplB in the ECP preparation
As to the kind of experiment: Western blot; 5 µg extracellular proteins of S. aureus NCTC 8325-4 and D29 denatured, SDS-PAGE, blotted on PVDF; α-SplB1 300 ng/mL overnight at 4°C as primary antibody. The note with it: one partner purified. In general terms: In western blotting, separated proteins are transferred to a membrane and probed.

B1: murine anti-SplB monoclonal antibody α-SplB1 (antibody, V domains shown)
VH: EVQLQESGPGILQSSQTLSLTCSFSGFSLNSVGMGVTWIRQPSGKGLEWLAHIYWDDDKLYNSSLKSRLTISKDTSRNQVFLNITSVVSADTATYYCARRVYGISYDYWYFDVWGTGTAVTVSS
VL: DILMTQSPATLSVTPGDRVSLSCRASQSISDYLHWYQQKSHESPRLLIKYASQSISGIPSRFSGSGSGSDFTLSINSVEPEDVGVYYCQNGHIFPPTFGAGTKLELK
notes: variable region of the heavy chain; mouse IgG1 heavy chain constant region (isotyping: IgG1 subclass); variable region of the light chain; mouse kappa light chain constant region (isotyping: κ light chains); IgG1, kappa; Raised against SplB-Strep; also called α-SplB1 mAb; anti-SplB mAb; source: hybridoma supernatant (C57BL/6N splenocytes fused with P3X63Ag8.653), purified (Protein-G-Sepharose)
For orientation: Kd means the equilibrium constant for the complex coming apart. Take B1: in assay [1], the “neutralisation of the cleavage of the synthetic substrate Ac-VEID-MCA by 2.5 µM tag-free SplB, pre-incubated with α-SplB1 at molar ratios 1:1 to 1:8 (SplB:α-SplB1), 37°C, 1 h” value is 66 % neutralised (at 1:1 molar ratio; complete at 1:2). In addition, the binding result is given as “no binding” in assay [2]; “no binding” in assay [3]; “no binding” in assay [4]; “no binding” in assay [5]; “binds” in assay [7]. In addition, the Kd in assay [6] worked out at 37.9 nM.
